Results published in publication PMC5967863.

Molecular target: full-length human TRPC3 (human) (UniProt Q13507)
Assay: cryo-EM structure; purified TRPC3 at 5 mg/mL in 20 mM Tris 8.0, 500 mM NaCl, 1 mM EDTA, 0.1% digitonin; single-particle reconstruction with C4 symmetry, 3.3 Å

## full-length human TRPC3 (from UniProt Q13507 1-921) (natural protein)
  stoichiometry N: 4
